From patent US20260216242A1 (ALMAC DISCOVERY, published 2026)
Numbering of substitutions follows the chain as printed. Numbers in names are those of the source.

T1: human ALPI (intestinal alkaline phosphatase) expressed on the surface of CHO cells (human, UniProt P09923 20-503)
T1 sequence (looked up): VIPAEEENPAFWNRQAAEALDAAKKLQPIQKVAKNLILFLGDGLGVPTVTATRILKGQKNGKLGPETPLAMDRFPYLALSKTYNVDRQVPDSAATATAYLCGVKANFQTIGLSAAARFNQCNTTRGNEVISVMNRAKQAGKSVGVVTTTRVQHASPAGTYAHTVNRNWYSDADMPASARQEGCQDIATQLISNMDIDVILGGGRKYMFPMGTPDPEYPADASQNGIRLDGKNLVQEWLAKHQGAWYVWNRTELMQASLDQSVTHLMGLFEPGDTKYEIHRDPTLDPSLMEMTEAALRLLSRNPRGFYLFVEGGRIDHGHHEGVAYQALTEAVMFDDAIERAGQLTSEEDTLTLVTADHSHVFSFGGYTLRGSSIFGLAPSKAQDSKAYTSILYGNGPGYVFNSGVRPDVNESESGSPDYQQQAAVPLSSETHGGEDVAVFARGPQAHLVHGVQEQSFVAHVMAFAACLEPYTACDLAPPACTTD

T2: human ALPL (tissue non-specific alkaline phosphatase) expressed on the surface of CHO cells (human, UniProt P05186 18-501)
T2 sequence (looked up): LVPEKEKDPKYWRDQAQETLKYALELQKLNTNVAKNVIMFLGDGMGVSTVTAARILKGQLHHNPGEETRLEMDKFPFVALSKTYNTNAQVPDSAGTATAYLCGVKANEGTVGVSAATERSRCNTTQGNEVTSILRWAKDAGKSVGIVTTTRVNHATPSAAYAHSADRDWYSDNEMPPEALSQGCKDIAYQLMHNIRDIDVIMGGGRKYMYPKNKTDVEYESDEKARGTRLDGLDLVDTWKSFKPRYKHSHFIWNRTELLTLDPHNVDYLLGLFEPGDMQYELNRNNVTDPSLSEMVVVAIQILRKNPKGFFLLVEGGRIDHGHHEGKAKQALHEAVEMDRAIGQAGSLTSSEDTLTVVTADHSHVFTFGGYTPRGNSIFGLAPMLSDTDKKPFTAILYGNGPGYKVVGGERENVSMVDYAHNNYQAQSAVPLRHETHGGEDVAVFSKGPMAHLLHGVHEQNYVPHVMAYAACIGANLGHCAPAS

B1: A06 E06-hFc (S239/442C T366Y/Y407T), [G4S]1 linker, MC-vc-PAB-MMAE conjugate, #710 (Fc fusion, DAR 4)
chain 1: QVHLVESGGGLVQAGGSLRLSCAASGRTFLSMGWFRQAPGKEREFVAAISWTGGSTGYADSVKGRFTISRESDKETMYLQMNSLKPEDTAVYYCAARGDVYYGGDDATRYKYWGQGTQVTVSSGGGGSEPKSSDKTHTCPPCPAPELLGGPCVFLFPPKPKDTLMISRTPEVTCVVVDVSHEDPEVKFNWYVDGVEVHNAKTKPREEQYNSTYRVVSVLTVLHQDWLNGKEYKCKVSNKALPAPIEKTISKAKGQPREPQVYTLPPSRDELTKNQVSLYCLVKGFYPSDIAVEWESNGQPENNYKTTPPVLDSDGSFFLYSKLTVDKSRWQQGNVFSCSVMHEALHNHYTQKSLCLSPGK
chain 2: QVHLVESGGGLVQAGGSLRLSCAASRRSFSEYAMGWFRQAPGKEREFVAAIGWSGVIEYADSVKGRFTISRDNAKDTVYLQMNSLKPEDTAVYYCAAGLGIRVVSQTPAYWGQGTQVTVSSGGGGSEPKSSDKTHTCPPCPAPELLGGPCVFLFPPKPKDTLMISRTPEVTCVVVDVSHEDPEVKFNWYVDGVEVHNAKTKPREEQYNSTYRVVSVLTVLHQDWLNGKEYKCKVSNKALPAPIEKTISKAKGQPREPQVYTLPPSRDELTKNQVSLTCLVKGFYPSDIAVEWESNGQPENNYKTTPPVLDSDGSFFLTSKLTVDKSRWQQGNVFSCSVMHEALHNHYTQKSLCLSPGK
modifications: MC-vc-PAB-MMAE on Cys of S239C and S442C (EU numbering)
notes: Biparatopic knob-into-hole VHH-hFc heterodimer, DAR 4; The assignment of T366Y to the first named VHH and Y407T to the second follows the order of the name; No paragraph spells out this pair; also called A06-E06-hFc-vcPAB-MMAE; A06-E06 hFc-vc-MMAE
B2: A06 E10-hFc (S239/442C T366Y/Y407T), [G4S]1 linker, MC-vc-PAB-MMAE conjugate, #711 (Fc fusion, DAR 4)
chain 1: B1 chain 1
chain 2: QVQLVESGGGLVQAGGSLRLSCAVSGRALSDYNIGWFRQAPGKEREFVARKTWDGSSTRYDDSVKGRFTVSIEDAKNTAYLQMSSLKTEDTAVYYCAAGRYSRARGWEYDYWGQGTQVTVSSGGGGSEPKSSDKTHTCPPCPAPELLGGPCVFLFPPKPKDTLMISRTPEVTCVVVDVSHEDPEVKFNWYVDGVEVHNAKTKPREEQYNSTYRVVSVLTVLHQDWLNGKEYKCKVSNKALPAPIEKTISKAKGQPREPQVYTLPPSRDELTKNQVSLTCLVKGFYPSDIAVEWESNGQPENNYKTTPPVLDSDGSFFLTSKLTVDKSRWQQGNVFSCSVMHEALHNHYTQKSLCLSPGK
modifications: MC-vc-PAB-MMAE on Cys of S239C and S442C (EU numbering)
notes: Biparatopic knob-into-hole VHH-hFc heterodimer, DAR 4; The assignment of T366Y to the first named VHH and Y407T to the second follows the order of the name; No paragraph spells out this pair; also called A06-E10-hFc-vcPAB-MMAE; A06-E10 hFc-vc-MMAE
B3: A06 F05-hFc (S239/442C T366Y/Y407T), [G4S]1 linker, MC-vc-PAB-MMAE conjugate, #712 (Fc fusion, DAR 4)
chain 1: B1 chain 1
chain 2: B2 chain 2 with V24A, L29F, S30G, K51R, E73D, D74N, S84N, A104V
modifications: MC-vc-PAB-MMAE on Cys of S239C and S442C (EU numbering)
notes: also called A06-F05-hFc-vcPAB-MMAE; A06-F05 hFc-vc-MMAE
B4: A06 E10-hFc (S239/442C T366Y/Y407T), [G4S]3 linker, MC-vc-PAB-MMAE conjugate, #664 (Fc fusion, DAR 4)
chain 1: QVHLVESGGGLVQAGGSLRLSCAASGRTFLSMGWFRQAPGKEREFVAAISWTGGSTGYADSVKGRFTISRESDKETMYLQMNSLKPEDTAVYYCAARGDVYYGGDDATRYKYWGQGTQVTVSSGGGGSGGGGSGGGGSEPKSSDKTHTCPPCPAPELLGGPCVFLFPPKPKDTLMISRTPEVTCVVVDVSHEDPEVKFNWYVDGVEVHNAKTKPREEQYNSTYRVVSVLTVLHQDWLNGKEYKCKVSNKALPAPIEKTISKAKGQPREPQVYTLPPSRDELTKNQVSLYCLVKGFYPSDIAVEWESNGQPENNYKTTPPVLDSDGSFFLYSKLTVDKSRWQQGNVFSCSVMHEALHNHYTQKSLCLSPGK
chain 2: QVQLVESGGGLVQAGGSLRLSCAVSGRALSDYNIGWFRQAPGKEREFVARKTWDGSSTRYDDSVKGRFTVSIEDAKNTAYLQMSSLKTEDTAVYYCAAGRYSRARGWEYDYWGQGTQVTVSSGGGGSGGGGSGGGGSEPKSSDKTHTCPPCPAPELLGGPCVFLFPPKPKDTLMISRTPEVTCVVVDVSHEDPEVKFNWYVDGVEVHNAKTKPREEQYNSTYRVVSVLTVLHQDWLNGKEYKCKVSNKALPAPIEKTISKAKGQPREPQVYTLPPSRDELTKNQVSLTCLVKGFYPSDIAVEWESNGQPENNYKTTPPVLDSDGSFFLTSKLTVDKSRWQQGNVFSCSVMHEALHNHYTQKSLCLSPGK
modifications: MC-vc-PAB-MMAE on Cys of S239C and S442C (EU numbering)
notes: Biparatopic knob-into-hole VHH-hFc heterodimer, DAR 4; The assignment of T366Y to the first named VHH and Y407T to the second follows the order of the name; No paragraph spells out this pair; also called A06-E10 hFc-vcPAB-MMAE; A06-E10hFc-vc-MMAE
B5: A06 F05-hFc (S239/442C T366Y/Y407T), [G4S]3 linker, MC-vc-PAB-MMAE conjugate, #665 (Fc fusion, DAR 4)
chain 1: B4 chain 1
chain 2: B4 chain 2 with V24A, L29F, S30G, K51R, E73D, D74N, S84N, A104V
modifications: MC-vc-PAB-MMAE on Cys of S239C and S442C (EU numbering)
notes: Biparatopic knob-into-hole VHH-hFc heterodimer, DAR 4; also called A06-F05 hFc-vcPAB-MMAE; A06-F05 hFc-vc-MMAE

What follows are binders tested against T3, human ALPPL2 (alkaline phosphatase, germ cell type) expressed on the surface of CHO cells (human, UniProt P10696 20-503) (assay: cell-based or functional assay).
T3 sequence (P10696 20-503): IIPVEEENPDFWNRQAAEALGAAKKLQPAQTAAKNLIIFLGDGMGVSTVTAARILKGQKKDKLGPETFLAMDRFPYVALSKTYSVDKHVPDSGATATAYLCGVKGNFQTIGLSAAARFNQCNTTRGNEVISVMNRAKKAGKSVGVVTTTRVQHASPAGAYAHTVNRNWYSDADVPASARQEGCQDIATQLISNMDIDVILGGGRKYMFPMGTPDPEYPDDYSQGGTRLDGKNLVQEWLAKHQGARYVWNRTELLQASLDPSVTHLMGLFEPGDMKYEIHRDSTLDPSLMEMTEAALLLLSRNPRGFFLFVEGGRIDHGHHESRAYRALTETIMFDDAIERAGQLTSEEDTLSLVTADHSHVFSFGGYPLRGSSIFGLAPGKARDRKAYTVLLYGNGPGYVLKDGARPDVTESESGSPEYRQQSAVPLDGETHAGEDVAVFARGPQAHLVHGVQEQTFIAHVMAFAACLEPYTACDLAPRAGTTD

Binder	IC50 at 96 h, cell-killing of CHO-ALPPL2 cells [nM]
B1	18.1
B2	14.1
B3	14.8
B4	7.3
B5	7.9

What follows are binders tested against T1, human ALPI (intestinal alkaline …) (assay: cell-based or functional assay).

Binder	IC50 at 96 h, cell-killing of CHO-ALPI cells (estimated from data extrapolation) [nM]	IC50 at 96 h, cell-killing of CHO-ALPI cells [nM]
B1	~846	
B2	~673	
B3	~776	
B4		> 1000
B5		> 1000

These binders were tested against T2, human ALPL (tissue non-specific …) (assay: cell-based or functional assay).

Binder	IC50 at 96 h, cell-killing of CHO-ALPL cells (estimated from data extrapolation) [nM]	IC50 at 96 h, cell-killing of CHO-ALPL cells [nM]
B1	~699	
B2	~597	
B3	~551	
B4		> 1000
B5		> 1000

Each binder was assayed against T2, human ALPL (tissue non-specific …) (assay: flow cytometry, CHO-ALPL cells).

Binder	binding result
B1	no binding (tested: 350 nM (highest concentration))
B2	no binding (tested: 350 nM (highest concentration))
B3	no binding (tested: 350 nM (highest concentration))
B4	no binding (tested: 350 nM (highest concentration))
B5	no binding (tested: 350 nM (highest concentration))

Each binder was assayed against T1, human ALPI (intestinal alkaline …) (assay: flow cytometry on CHO-ALPI cells).

Binder	MFI on CHO-ALPI cells at 350 nM as percent of MFI on CHO-ALPP cells (KDapp not-determinable) [%]
B1	≤ 1
B2	≤ 1
B3	≤ 1
B4	≤ 1
B5	≤ 1

The binders below were run against T4, human ALPP (alkaline phosphatase, placental type) expressed on the surface of CHO cells (human, UniProt P05187 23-506) (assay: flow cytometry on CHO-ALPP cells, apparent KD (KDapp)).
T4 construct: also called CHO-ALPP; hALPP
Protocol: (§1) Biparatopic VHH-hFc drug conjugates were assessed for human ALPP, ALPPL2, ALPI and ALPL cell-surface binding by flow cytometry. Binders were screened on CHO cells stably expressing human ALPP, ALPPL2, ALPI or ALPL.
(§2) Cell surface binding of test agents to hALPP isoforms was characterized in four CHO-ALPP isoform transfectant cell lines (CHO-ALPP, CHO-ALPPL2, CHO-ALPI and CHO-ALPL) and the resulting KDapp values determined. Adherent cells were detached from tissue culture flasks by incubating with 0.1% EDTA/PBS solution at 37° C. for […] or until cells detached easily. Cells were re-suspended in ice-cold PBS/2% FCS in 15 ml tubes and centrifuged at 1700 rpm for 5 mins at 4° C. Supernatant was removed and the cell pellet re-suspended in PBS/2% FCS. […] Cells were incubated with 100 μl of test agents at a range of concentrations, plus controls for 1 hr on ice. The sample plate was centrifuged at 1700 rpm for 5 mins at 4° C. The supernatant was removed, and a wash performed by re-suspending the cell pellets in 0.25 mL of ice-cold PBS/2% FCS using a multichannel pipette. Samples were again centrifuged at 1700 rpm for 5 min at 4° C. Supernatant was removed and two further washes performed as described. After the final wash and centrifugation step, excess liquid was removed by blotting the plate on tissue paper. Binding of VHH-hFc agents was determined by adding 100 μl of Fitc-anti-human Ab (ThermoFisher) and incubating for 30 mins on ice in the dark. Wash steps were performed as described previously. All cell pellets were finally re-suspended in 0.28 ml of ice-cold PBS/2% FCS and left on ice in the dark prior to analysis on a Merck-Millipore Guava EasyCyte HT or Thermo Fisher Attune N×T flow cytometer.

Binder	Kd [nM]
B1	11
B2	13.4
B3	10.6
B4	8.5
B5	9.8

Each binder was assayed against T3, human ALPPL2 (alkaline phosphatase, …) (assay: flow cytometry on CHO-ALPPL2 cells, apparent KD (KDapp)).
Protocol: as §1, §2

Binder	Kd [nM]
B1	5.6
B2	7.6
B3	5.7
B4	3.7
B5	4.9
